Measured values published in PMC4486171, “Ohr Protects Corynebacterium glutamicum against Organic Hydroperoxide Induced Oxidative Stress” (PLoS ONE, 2015).

Substrate: CC(C)(OO)c1ccccc1
Test: purified protein
Assay type: biochemical, Corynebacterium glutamicum
Conditions: 40 μM Lpd, 5 μM SucB, 0.2 mM NADPH, 0.1 μM Ohr, 50 mM sodium phosphate pH 7.4, 50 mM NaCl, 1 mM DTPA, 37°C

B1: Ohr (Corynebacterium glutamicum ATCC 13032) (protein)
chain: MAIESIAYTSEALSTGSGRLGHVRSTDGALEFEMTPPKALGGSGEGTNPEQLFAVGYAACFHSAMHSVARSRKITLEDTAVGARVSIGPNGAGGFEIAVELEVSIPQLPQAEAQELADAAHQVCPYSNATRGNISVTVSVIDEEA
notes: N-terminal His6 tag (pET-28a), about 17 kDa on gel, E. coli BL21(DE3)
**Q.** What does the source list for B1?
**A.** Km: 17.48 ± 0.78 µM; kcat: 5.48 s⁻¹; kcat/Km: 314300 ± 1420 M⁻¹ s⁻¹
